The source of these data is patent US20110091994A1, “Methods for Screening Compounds for Treating and/or Preventing an Hepatitis C Virus Infection” (priority 2008, published 2011).

Where two headings read alike, the source gives them in different places.

In assay [1] the test system is HCV ORFs (Gal4-DB fusions). The assay is classed as binding, HCV genotype 1b, isolate con1. The conditions noted are these: human protein listed by gene symbol; the value names the HCV protein it interacts with.
In assay [2] the target is T1, HCV ORFs (Gal4-DB fusions) (Hepatitis C virus genotype 1b, UniProt Q9WMX2).
T1 construct: expressed in transfected cells; host or cells: Saccharomyces cerevisiae MAV203 (IMAP1) / AH109 (IMAP2)
Format: binding, HCV genotype 1b, isolate con1. The conditions noted are these: human protein as prey.

The target in assay [3] is T2, HCV proteins (Hepatitis C virus genotype 1b, UniProt Q9WMX2).
T2 construct: expressed in transfected cells
Put plainly: Validation by Y2H pairwise matrices.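 Also: yeast two-hybrid pairwise tests of interactions first found in Y2H screens of HCV bait proteins against human cDNA libraries.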 The assay is classed as binding.

Setting [4] is: validation of interaction with HCV protein NS3.
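For IMAP Y2H IMAP1 (number of IST) in this document: yeast two-hybrid screens using HCV genotype 1b proteins fused to Gal4-DB as baits against prey cDNA libraries from human spleen and foetal brain, IMAP1 via transformation and IMAP2 via mating.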
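For Interaction with viral protein in this document: yeast two-hybrid screens using HCV genotype 1b proteins fused to Gal4-DB as baits against prey cDNA libraries from human spleen and foetal brain, IMAP1 via transformation and IMAP2 via mating.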

B1: SLIT2 (protein, UniProt O94813 31-1529, looked up)
Slit homolog 2 protein: QCSCSGSTVDCHGLALRSVPRNIPRNTERLDLNGNNITRITKTDFAGLRHLRVLQLMENKISTIERGAFQDLKELERLRLNRNHLQLFPELLFLGTAKLYRLDLSENQIQAIPRKAFRGAVDIKNLQLDYNQISCIEDGAFRALRDLEVLTLNNNNITRLSVASFNHMPKLRTFRLHSNNLYCDCHLAWLSDWLRQRPRVGLYTQCMGPSHLRGHNVAEVQKREFVCSGHQSFMAPSCSVLHCPAACTCSNNIVDCRGKGLTEIPTNLPETITEIRLEQNTIKVIPPGAFSPYKKLRRIDLSNNQISELAPDAFQGLRSLNSLVLYGNKITELPKSLFEGLFSLQLLLLNANKINCLRVDAFQDLHNLNLLSLYDNKLQTIAKGTFSPLRAIQTMHLAQNPFICDCHLKWLADYLHTNPIETSGARCTSPRRLANKRIGQIKSKKFRCSAKEQYFIPGTEDYRSKLSGDCFADLACPEKCRCEGTTVDCSNQKLNKIPEHIPQYTAELRLNNNEFTVLEATGIFKKLPQLRKINFSNNKITDIEEGAFEGASGVNEILLTSNRLENVQHKMFKGLESLKTLMLRSNRITCVGNDSFIGLSSVRLLSLYDNQITTVAPGAFDTLHSLSTLNLLANPFNCNCYLAWLGEWLRKKRIVTGNPRCQKPYFLKEIPIQDVAIQDFTCDDGNDDNSCSPLSRCPTECTCLDTVVRCSNKGLKVLPKGIPRDVTELYLDGNQFTLVPKELSNYKHLTLIDLSNNRISTLSNQSFSNMTQLLTLILSYNRLRCIPPRTFDGLKSLRLLSLHGNDISVVPEGAFNDLSALSHLAIGANPLYCDCNMQWLSDWVKSEYKEPGIARCAGPGEMADKLLLTTPSKKFTCQGPVDVNILAKCNPCLSNPCKNDGTCNSDPVDFYRCTCPYGFKGQDCDVPIHACISNPCKHGGTCHLKEGEEDGFWCICADGFEGENCEVNVDDCEDNDCENNSTCVDGINNYTCLCPPEYTGELCEEKLDFCAQDLNPCQHDSKCILTPKGFKCDCTPGYVGEHCDIDFDDCQDNKCKNGAHCTDAVNGYTCICPEGYSGLFCEFSPPMVLPRTSPCDNFDCQNGAQCIVRINEPICQCLPGYQGEKCEKLVSVNFINKESYLQIPSAKVRPQTNITLQIATDEDSGILLYKGDKDHIAVELYRGRVRASYDTGSHPASAIYSVETINDGNFHIVELLALDQSLSLSVDGGNPKIITNLSKQSTLNFDSPLYVGGMPGKSNVASLRQAPGQNGTSFHGCIRNLYINSELQDFQKVPMQTGILPGCEPCHKKVCAHGTCQPSSQAGFTCECQEGWMGPLCDQRTNDPCLGNKCVHGTCLPINAFSYSCKCLEGHGGVLCDEEEDLFNPCQAIKCKHGKCRLSGLGQPYCECSSGYTGDSCDREISCRGERIRDYYQKQQGYAACQTTKKVSRLECRGGCAGGQCCGPLRSKRRKYSFECTDGSSFVDEVEKVVKCGCTRCVS
On to B1, for which, in assay [1], the “Interaction with viral protein” value was “NS3”. Moreover, the “IMAP Y2H IMAP1 (number of IST)” value in assay [2] (HCV protein NS3 as bait) is recorded as 5; in assay [2] (HCV protein p7 as bait), 1. Moreover, the Y2H matrices entry in assay [3] (interaction with HCV protein p7) and in assay [3] (setting [4]) was “+” in each case.

B2: SLIT3 (protein, UniProt O75094 34-1523, looked up)
Slit homolog 3 protein: CPTKCTCSAASVDCHGLGLRAVPRGIPRNAERLDLDRNNITRITKMDFAGLKNLRVLHLEDNQVSVIERGAFQDLKQLERLRLNKNKLQVLPELLFQSTPKLTRLDLSENQIQGIPRKAFRGITDVKNLQLDNNHISCIEDGAFRALRDLEILTLNNNNISRILVTSFNHMPKIRTLRLHSNHLYCDCHLAWLSDWLRQRRTVGQFTLCMAPVHLRGFNVADVQKKEYVCPAPHSEPPSCNANSISCPSPCTCSNNIVDCRGKGLMEIPANLPEGIVEIRLEQNSIKAIPAGAFTQYKKLKRIDISKNQISDIAPDAFQGLKSLTSLVLYGNKITEIVKGLFDGLVSLQLLLLNANKINCLRVNTFQDLQNLNLLSLYDNKLQTISKGLFAPLQSIQTLHLAQNPFVCDCHLKWLADYLQDNPIETSGARCSSPRRLANKRISQIKSKKFRCSGSEDYRSRFSSECFMDLVCPEKCRCEGTIVDCSNQKLVRIPSHLPEYVTDLRLNDNEVSVLEATGIFKKLPNLRKINLSNNKIKEVREGAFDGAASVQELMLTGNQLETVHGRVFRGLSGLKTLMLRSNLIGCVSNDTFAGLSSVRLLSLYDNRITTITPGAFTTLVSLSTINLLSNPFNCNCHLAWLGKWLRKRRIVSGNPRCQKPFFLKEIPIQDVAIQDFTCDGNEESSCQLSPRCPEQCTCMETVVRCSNKGLRALPRGMPKDVTELYLEGNHLTAVPRELSALRHLTLIDLSNNSISMLTNYTFSNMSHLSTLILSYNRLRCIPVHAFNGLRSLRVLTLHGNDISSVPEGSFNDLTSLSHLALGTNPLHCDCSLRWLSEWVKAGYKEPGIARCSSPEPMADRLLLTTPTHRFQCKGPVDINIVAKCNACLSSPCKNNGTCTQDPVELYRCACPYSYKGKDCTVPINTCIQNPCQHGGTCHLSDSHKDGFSCSCPLGFEGQRCEINPDDCEDNDCENNATCVDGINNYVCICPPNYTGELCDEVIDHCVPELNLCQHEAKCIPLDKGFSCECVPGYSGKLCETDNDDCVAHKCRHGAQCVDTINGYTCTCPQGFSGPFCEHPPPMVLLQTSPCDQYECQNGAQCIVVQQEPTCRCPPGFAGPRCEKLITVNFVGKDSYVELASAKVRPQANISLQVATDKDNGILLYKGDNDPLALELYQGHVRLVYDSLSSPPTTVYSVETVNDGQFHSVELVTLNQTLNLVVDKGTPKSLGKLQKQPAVGINSPLYLGGIPTSTGLSALRQGTDRPLGGFHGCIHEVRINNELQDFKALPPQSLGVSPGCKSCTVCKHGLCRSVEKDSVVCECRPGWTGPLCDQEARDPCLGHRCHHGKCVATGTSYMCKCAEGYGGDLCDNKNDSANACSAFKCHHGQCHISDQGEPYCLCQPGFSGEHCQQENPCLGQVVREVIRRQKGYASCATASKVPIMECRGGCGPQCCQPTRSKRRKYVFQCTDGSSFVEEVERHLECGCLACS
Take B2: in assay [1], the “Interaction with viral protein” value was “NS3”. For the same molecule, the “IMAP Y2H IMAP1 (number of IST)” value in assay [2] (HCV protein NS3 as bait) is 4. In addition, the Y2H matrices entry in assay [3] (setting [4]) is recorded as “+”.

B3: SPOCK3 (protein, UniProt Q9BQ16 22-436, looked up)
Testican-3: AAAAVAAAGGRSDGGNFLDDKQWLTTISQYDKEVGQWNKFRDEVEDDYFRTWSPGKPFDQALDPAKDPCLKMKCSRHKVCIAQDSQTAVCISHRRLTHRMKEAGVDHRQWRGPILSTCKQCPVVYPSPVCGSDGHTYSFQCKLEYQACVLGKQISVKCEGHCPCPSDKPTSTSRNVKRACSDLEFREVANRLRDWFKALHESGSQNKKTKTLLRPERSRFDTSILPICKDSLGWMFNRLDTNYDLLLDQSELRSIYLDKNEQCTKAFFNSCDTYKDSLISNNEWCYCFQRQQDPPCQTELSNIQKRQGVKKLLGQYIPLCDEDGYYKPTQCHGSVGQCWCVDRYGNEVMGSRINGVADCAIDFEISGDFASGDFHEWTDDEDDEDDIMNDEDEIEDDDEDEGDDDDGGDDHDVYI
As to B3, the “Interaction with viral protein” value in assay [1] is listed as “NS3”. Besides, in assay [2] (HCV protein NS3 as bait), the “IMAP Y2H IMAP1 (number of IST)” value came to 1. Also, in assay [3] (setting [4]), the Y2H matrices entry is on record as “+”.

B4: SNX4 (protein, UniProt O95219 1-450, looked up)
Sorting nexin-4: MEQAPPDPERQLQPAPLEPLGSPDAGLGAAVGKEAEGAGEESSGVDTMTHNNFWLKKIEISVSEAEKRTGRNAMNMQETYTAYLIETRSVEHTDGQSVLTDSLWRRYSEFELLRSYLLVYYPHIVVPPLPEKRAEFVWHKLSADNMDPDFVERRRIGLENFLLRIASHPILCRDKIFYLFLTQEGNWKETVNETGFQLKADSRLKALNATFRVKNPDKRFTDLKHYSDELQSVISHLLRVRARVADRLYGVYKVHGNYGRVFSEWSAIEKEMGDGLQSAGHHMDVYASSIDDILEDEEHYADQLKEYLFYAEALRAVCRKHELMQYDLEMAAQDLASKKQQCEELVTGTVRTFSLKGMTTKLFGQETPEQREARIKVLEEQINEGEQQLKSKNLEGREFVKNAWADIERFKEQKNRDLKEALISYAVMQISMCKKGIQVWTNAKECFSKM
In the case of B4, the “Interaction with viral protein” value in assay [1] was “NS3”. In assay [2] (HCV protein NS3 as bait), the “IMAP Y2H IMAP1 (number of IST)” value is reported as 1. The Y2H matrices entry in assay [3] (setting [4]) is recorded as “+”.

B5: PAK4 (protein, UniProt O96013 1-591, looked up)
Serine/threonine-protein …: MFGKRKKRVEISAPSNFEHRVHTGFDQHEQKFTGLPRQWQSLIEESARRPKPLVDPACITSIQPGAPKTIVRGSKGAKDGALTLLLDEFENMSVTRSNSLRRDSPPPPARARQENGMPEEPATTARGGPGKAGSRGRFAGHSEAGGGSGDRRRAGPEKRPKSSREGSGGPQESSRDKRPLSGPDVGTPQPAGLASGAKLAAGRPFNTYPRADTDHPSRGAQGEPHDVAPNGPSAGGLAIPQSSSSSSRPPTRARGAPSPGVLGPHASEPQLAPPACTPAAPAVPGPPGPRSPQREPQRVSHEQFRAALQLVVDPGDPRSYLDNFIKIGEGSTGIVCIATVRSSGKLVAVKKMDLRKQQRRELLFNEVVIMRDYQHENVVEMYNSYLVGDELWVVMEFLEGGALTDIVTHTRMNEEQIAAVCLAVLQALSVLHAQGVIHRDIKSDSILLTHDGRVKLSDFGFCAQVSKEVPRRKSLVGTPYWMAPELISRLPYGPEVDIWSLGIMVIEMVDGEPPYFNEPPLKAMKMIRDNLPPRLKNLHKVSPSLKGFLDRLLVRDPAQRATAAELLKHPFLAKAGPPASIVPLMRQNRTR
With B5, the “Interaction with viral protein” value in assay [1] is listed as “CORE”. For the same molecule, the “IMAP Y2H IMAP1 (number of IST)” value in assay [2] (HCV protein CORE as bait) was 1. For the same molecule, the Y2H matrices entry in assay [3] (validation of interaction with HCV protein CORE) is given as “+”.

B6: SIAH1 (protein, UniProt Q8IUQ4 1-282, looked up)
E3 ubiquitin-protein ligase …: MSRQTATALPTGTSKCPPSQRVPALTGTTASNNDLASLFECPVCFDYVLPPILQCQSGHLVCSNCRPKLTCCPTCRGPLGSIRNLAMEKVANSVLFPCKYASSGCEITLPHTEKADHEELCEFRPYSCPCPGASCKWQGSLDAVMPHLMHQHKSITTLQGEDIVFLATDINLPGAVDWVMMQSCFGFHFMLVLEKQEKYDGHQQFFAIVQLIGTRKQAENFAYRLELNGHRRRLTWEATPRSIHEGIATAIMNSDCLVFDTSIAQLFAENGNLGINVTISMC
With B6, the “Interaction with viral protein” value in assay [1] is recorded as “NS3”. For the same molecule, the “IMAP Y2H IMAP1 (number of IST)” value in assay [2] (HCV protein NS3 as bait) was found to be 1. Moreover, the Y2H matrices result in assay [3] (setting [4]) is “+”.
